The target of the assay is T1, SBP-tagged ASXL1^450–1,300 (human, UniProt Q8IXJ9 450-1300).
T1 construct: ASXL1, human, residues 450–1,300; cDNAs encoding SBP and ASXL1 450-1,300 cloned into pRK7-N-Flag; also called ASXL1 (residues 450–1,300); ASXL^450–1,300; source: HEK293T, overexpressed, immobilized to Streptavidin beads
T1 sequence (looked up): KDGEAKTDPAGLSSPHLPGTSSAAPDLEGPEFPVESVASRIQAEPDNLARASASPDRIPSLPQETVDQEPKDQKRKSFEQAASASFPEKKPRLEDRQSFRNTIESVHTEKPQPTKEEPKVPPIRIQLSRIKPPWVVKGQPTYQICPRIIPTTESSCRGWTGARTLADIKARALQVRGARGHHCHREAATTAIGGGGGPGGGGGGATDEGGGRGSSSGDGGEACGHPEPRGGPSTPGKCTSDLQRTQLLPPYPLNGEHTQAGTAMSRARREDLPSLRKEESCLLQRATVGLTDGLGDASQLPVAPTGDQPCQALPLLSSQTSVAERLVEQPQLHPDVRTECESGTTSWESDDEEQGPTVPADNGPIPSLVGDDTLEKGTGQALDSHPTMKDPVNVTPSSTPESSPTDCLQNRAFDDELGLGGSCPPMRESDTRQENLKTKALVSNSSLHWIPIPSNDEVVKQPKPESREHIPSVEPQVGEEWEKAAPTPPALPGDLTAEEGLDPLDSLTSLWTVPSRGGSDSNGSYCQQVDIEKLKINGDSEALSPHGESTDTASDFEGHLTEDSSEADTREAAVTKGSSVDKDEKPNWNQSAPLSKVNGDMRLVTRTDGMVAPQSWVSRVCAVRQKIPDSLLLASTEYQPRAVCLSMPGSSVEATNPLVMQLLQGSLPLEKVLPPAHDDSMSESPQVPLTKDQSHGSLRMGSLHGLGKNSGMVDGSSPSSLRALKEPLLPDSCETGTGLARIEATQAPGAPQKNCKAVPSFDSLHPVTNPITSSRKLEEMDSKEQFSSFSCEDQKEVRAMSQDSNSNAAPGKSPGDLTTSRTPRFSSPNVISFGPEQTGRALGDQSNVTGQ
As to the kind of experiment: pull-down; SBP-tagged ASXL1^450–1,300 immobilized to Streptavidin beads, incubated with Flag-peptide-eluted FOXK1 at 4 °C for 3 h, washed 3 times, SDS-PAGE and Coomassie blue staining. The conditions noted are these: both partners purified.

B1: Flag-tagged full-length FOXK1 protein (natural protein, human, UniProt P85037 1-733, looked up)
chain: MAEVGEDSGARALLALRSAPCSPVLCAAAAAAAFPAAAPPPAPAQPQPPPGPPPPPPPPLPPGAIAGAGSSGGSSGVSGDSAVAGAAPALVAAAAASVRQSPGPALARLEGREFEFLMRQPSVTIGRNSSQGSVDLSMGLSSFISRRHLQLSFQEPHFYLRCLGKNGVFVDGAFQRRGAPALQLPKQCTFRFPSTAIKIQFTSLYHKEEAPASPLRPLYPQISPLKIHIPEPDLRSMVSPVPSPTGTISVPNSCPASPRGAGSSSYRFVQNVTSDLQLAAEFAAKAASEQQADTSGGDSPKDESKPPFSYAQLIVQAISSAQDRQLTLSGIYAHITKHYPYYRTADKGWQNSIRHNLSLNRYFIKVPRSQEEPGKGSFWRIDPASEAKLVEQAFRKRRQRGVSCFRTPFGPLSSRSAPASPTHPGLMSPRSGGLQTPECLSREGSPIPHDPEFGSKLASVPEYRYSQSAPGSPVSAQPVIMAVPPRPSSLVAKPVAYMPASIVTSQQPAGHAIHVVQQAPTVTMVRVVTTSANSANGYILTSQGAAGGSHDAAGAAVLDLGSEARGLEEKPTIAFATIPAAGGVIQTVASQMAPGVPGHTVTILQPATPVTLGQHHLPVRAVTQNGKHAVPTNSLAGNAYALTSPLQLLATQASSSAPVVVTRVCEVGPKEPAAAVAATATTTPATATTASASASSTGEPEVKRSRVEEPSGAVTTPAGVIAAAGPQGPGTGE
notes: FOXK1, human, full-length cDNA; Vector pRK7-N-Flag; source: HEK293T, overexpressed, purified by immunoprecipitation and eluted by Flag peptide; not shown: Flag, N-terminal, kept
As for B1, the binding result was “binds”.

Values taken from publication PMC8225741, “Tumor-derived neomorphic mutations in ASXL1 impairs the BAP1-ASXL1-FOXK1/K2 transcription network” (Protein & Cell, 2020).
